The values below come from article PMC2951370, “Concerted Action of Two Formins in Gliding Motility and Host Cell Invasion by Toxoplasma gondii” (PLoS Pathogens, 2010).

Series [1] deals with DD-myc-F1-IR/AA (Toxoplasma gondii). Briefly: co-IP; two sequential anti-myc immunoprecipitations (48 hrs Shld-1); IPs and flow throughs blotted, bands quantified with ImageJ and normalised to the input.
The target in series [2] is DD-myc-F2-R/A (Toxoplasma gondii). Described as above.
Series [3] concerns the molecule itself. Briefly: SEC; purified FH2 domains on Superose 6 10/300 GL, 0.4 ml/min, PBS-NaCl 0.15 M buffer, to determine their oligomeric state.

In the case of “Toxoplasma gondii Formin 1 (TgFRM1), endogenous (natural protein)”, in series [1], the percent of the input formin left in the second flow through after two anti-myc IPs (not co-precipitated) came to 30%.
The molecule “Toxoplasma gondii Formin 2 (TgFRM2), endogenous (natural protein)” displayed a percent of the input formin left in the second flow through after two anti-myc IPs (not co-precipitated) in series [2] of 17%.

B1: His-F1L (FH2 domain of TgFRM1 with an N-terminal 48 amino acid proline-rich extension) (domain or fragment)
chain: KKPEAPKKEEAKPKPEAKKEAPKKGPPGGKGGKGPPGKGPPKGKGKGPKKKGEGGLKVGKKDEGKTKRFFWDPIFEDEIPGTIFMKKPNMVLKLQDVEETFAKVVAKKKTESKKPKIIQLLPDSKRAYNMSIALSKFNNYSYQQLREAIIDLDPKILTIEATETLLNFVPTGEENQVVKEYINSGGDLKLVDKPEQFVAAMLGVPLMKQRLEAHAFALNFREAYSDAYTPLENMADACDAIDDSQNLKIVLFAILELGNALNEGDPQRGGAAGFKPTTLAKLQEIRTTTKPVRTMLQYICDIIWEQQPTALNIYEDLKICDKAQRVDMQGIEGRISNLKAGLTKVKNTLEAAKKGNESTGVMGDRDPLRNIMDEFLIEAEPKIKQLDDFLVQVQNQFLQTCHYSGYPDKDVKKIKPDELFKQVAGFARQVDAIRKQKQEIADRELKRKEAEAKRAGKGLKSTAVKKVGMK
notes: source: E. coli, purified (Ni-NTA under native conditions)
As usually defined, the stoichiometry N is the number of molecules, sites or subunits per partner or assembly. Consider B1, for which the “stoichiometry N” value in series [3] turned out to be 2.

B2: His-F2 (FH2 domain of TgFRM2) (domain or fragment, Toxoplasma gondii, UniProt D0V3Y1 3317-4043, looked up)
chain: TGSYPGASDKSQQTFSAGAPSSGTNARTESTPAGAGETGASGEAKAPAAPKKKAMPPPPPPGKTPGDASKAPGGPPGKGKAPPLPKGKKAPQLGKAPKAGGPPKKADAVDPMTLPLRRKIHWKTLGKEQIEGTVFKELEGDPAIPDMFDPEAISRLFSATLTVKSDEAAVKAAPKKAEEKKHTILDNKRAQNVAIVLARLPLSLDAIAQKMLHLDTEGLTVDILQKVEQVAPTPEELVKFREYEELKKTENTGDLRDVEKKMTALIPVTRLSSRVRVMQTALQWEKVVEEIEKQLALLCKAADEAHNSRKFRSLLQAVLQWGNYVNHGVKKAPKGQEVSSESEARKAETTSPTEGDRRENRQTLQQLPPILLVKELPTKGFKLASLEKLMEFRTTVDKSICSLHFIISNLIVSLPELDILDLASDMPSLEAAARLSDESIDAPVSYLRNEAAFLLSQIHAIKQVLAAKDATATDPSGAPRPSGSKPQTDEALHAELTRLQKLHGEMVLTLERLRESYLNCKAVIGEVGRFYGEDGPKKPSAGKHKLKGQAVSVDAGGSATAGGVIAEWEFGLLDQSPFELLFSILSTCRQGLRDVQANPRKYAILLVGRFASEEEKWKLLKFHIDNSLANRKRVTGCRGSDAEQVAGRPQDADKAGSSVVSSPRTTPRGSIASRGGKKLIVGRHGPEAGGTPQIPRGPPKSDNGSFTETQRLGRGLSEGSEDALSSP
notes: also called F2-WT; His-GST-F2; source: E. coli, purified (Ni-NTA under native conditions)
For the molecule B2, the “stoichiometry N” value in series [3] is 2.
